Measurements as given in publication PMC11594380.

Molecular target: SARS-CoV-2 Wuhan spike receptor-binding domain (RBD), His-tagged (SARS-CoV-2) (UniProt P0DTC2)
Experiment: ELISA

Substance: WTL_3H, wild-type-like tri-helical ACE2 fragment (from UniProt Q9BYF1 18-805) (domain or fragment)
- EC50: 253 nM
- Kd: 192 nM
